Measured values taken from article PMC10999626, “Kinetic modeling of the plasma pharmacokinetic profiles of ADAMTS13 fragment and its Fc-fusion counterpart in mice” (Frontiers in Pharmacology, 2024).

Experiments:
[1] = molecular target: T1, biotinylated mouse FcRn protein (mouse, UniProt Q61559 22-297, biotin (biotinylated; site not stated)); assay: BLI; biotinylated mouse FcRn (1.0 ug/mL) immobilised on streptavidin biosensor tip; MDTCS-Fc 0.625 to 20 nM in solution; 25 mM acetate, 25 mM NaH2PO4, 150 mM NaCl, 0.01% Tween-20, pH 6.0; association 5 min, dissociation 5 min; Octet Qke; biosensors without FcRn subtracted; details: both partners purified
T1 construct: neonatal Fc receptor (FcRn), mouse; also called mouse neonatal Fc-receptor; source: bought: Acro Biosystems
T1 sequence (looked up): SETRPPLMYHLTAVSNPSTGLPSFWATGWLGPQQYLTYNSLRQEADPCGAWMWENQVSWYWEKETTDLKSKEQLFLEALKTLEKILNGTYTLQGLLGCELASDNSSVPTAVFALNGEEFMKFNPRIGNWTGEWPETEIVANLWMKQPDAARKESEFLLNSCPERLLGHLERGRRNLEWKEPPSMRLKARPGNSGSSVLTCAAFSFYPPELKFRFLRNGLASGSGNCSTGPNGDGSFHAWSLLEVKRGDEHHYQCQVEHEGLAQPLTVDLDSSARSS

[2] = molecular target: T1, biotinylated mouse FcRn protein; assay: as above; details: both partners purified; remark: listed apart in the source

koff [1]: 1.96e-06 s⁻¹ | Kd [2]: 0.144 ± 0.022 nM
B1: MDTCS-Fc (Fc fusion)
chain: AAGGILHLELLVAVGPDVFQAHQEDTERYVLTNLNIGAELLRDPSLGAQFRVHLVKMVILTEPEGAPNITANLTSSLLSVCGWSQTINPEDDTDPGHADLVLYITRFDLELPDGNRQVRGVTQLGGACSPTWSCLITEDTGFDLGVTIAHEIGHSFGLEHDGAPGSGCGPSGHVMASDGAAPRAGLAWSPCSRRQLLSLLSAGRARCVWDPPRPQPGSAGHPPDAQPGLYYSANEQCRVAFGPKAVACTFAREHLDMCQALSCHTDPLDQSSCSRLLVPLLDGTECGVEKWCSKGRCRSLVELTPIAAVHGRWSSWGPRSPCSRSCGGGVVTRRRQCNNPRPAFGGRACVGADLQAEMCNTQACEKTQLEFMSQQCARTDGQPLRSSPGGASFYHWGAAVPHSQGDALCRHMCRAIGESFIMKRGDSFLDGTRCMPSGPREDGTLSLCVSGSCRTFGCDGRMDSQQVWDRCQVCGGDNSTCSPRKGSFTAGRAREYVTFLTVTPNLTSVYIANHRPLFTHLAVRIGGRYVVAGKMSISPNTTYPSLLEDGRVEYRVALTEDRLPRLEEIRIWGPLQEDADIQVYRRYGEEYGNLTRPDITFTYFQPKPRQAEPKSCDKTHTCPPCPAPEFLGGPSVFLFPPKPKDTLYITREPEVTCVVVDVSQEDPEVQFNWYVDGVEVHNAKTKPREEQFNSTYRVVSVLTVLHQDWLNGKEYKCKVSNKGLPSSIEKTISKAKGQPREPQVYTLPPSQEEMTKNQVSLTCLVKGFYPSDIAVEWESNGQPENNYKTTPPVLDSDGSFFLYSRLTVDKSRWQEGNVFSCSVMHEALHNHYTQKSLSLSL
